Experimental data taken from patent US7176279.

Assays:
[1] = target: hMC3-R (human) (UniProt P41968); test: competition with 125I-NDP-MSH, HEK 293 hMC3-R membranes, 1 µM peptide
[2] = target: hMC4-R (human) (UniProt P32245); test: competition with 125I-NDP-MSH, HEK 293 hMC4-R membranes, 1 µM peptide
[3] = target: hMC5-R (human) (UniProt P33032); test: competition with 125I-NDP-MSH, HEK 293 hMC5-R membranes, 1 µM peptide
Chain of hMC5-R (human) (P33032 whole entry): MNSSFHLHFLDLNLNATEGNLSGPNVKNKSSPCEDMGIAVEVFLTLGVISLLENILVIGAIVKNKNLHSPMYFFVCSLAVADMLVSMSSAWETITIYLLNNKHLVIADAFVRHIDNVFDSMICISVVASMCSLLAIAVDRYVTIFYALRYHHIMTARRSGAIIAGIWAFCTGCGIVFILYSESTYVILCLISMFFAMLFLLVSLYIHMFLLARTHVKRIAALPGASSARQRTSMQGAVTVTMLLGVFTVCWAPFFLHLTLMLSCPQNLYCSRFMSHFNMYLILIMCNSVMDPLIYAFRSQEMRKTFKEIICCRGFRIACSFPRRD

Chain of hMC4-R (human) (P32245 whole entry): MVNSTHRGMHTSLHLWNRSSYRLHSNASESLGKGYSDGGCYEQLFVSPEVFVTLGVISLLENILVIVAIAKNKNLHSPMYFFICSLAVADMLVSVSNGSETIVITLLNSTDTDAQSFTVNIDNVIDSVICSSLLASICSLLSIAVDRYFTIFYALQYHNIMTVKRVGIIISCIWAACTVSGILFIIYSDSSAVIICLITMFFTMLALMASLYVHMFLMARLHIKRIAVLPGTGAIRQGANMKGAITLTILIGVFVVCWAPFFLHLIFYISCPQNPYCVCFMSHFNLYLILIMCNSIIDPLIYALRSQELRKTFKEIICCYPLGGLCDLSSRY
Chain of hMC3-R (human) (P41968 whole entry): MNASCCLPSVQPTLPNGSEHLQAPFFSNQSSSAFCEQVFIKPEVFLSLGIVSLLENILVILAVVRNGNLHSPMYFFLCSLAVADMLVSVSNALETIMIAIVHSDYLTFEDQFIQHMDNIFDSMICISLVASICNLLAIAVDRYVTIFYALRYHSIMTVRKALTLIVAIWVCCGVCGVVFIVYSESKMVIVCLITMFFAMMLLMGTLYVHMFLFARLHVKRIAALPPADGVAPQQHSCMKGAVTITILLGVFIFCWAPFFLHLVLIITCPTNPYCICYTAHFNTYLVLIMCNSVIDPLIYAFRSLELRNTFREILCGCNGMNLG

| Substance | Percent Inhibition At 1 µM concentration [1] [%] | Percent Inhibition At 1 µM concentration [2] [%] | Percent Inhibition At 1 µM concentration [3] [%] |
| --- | --- | --- | --- |
| Ac-Nle-cyclo(-Asp-His-D-Phe-Orn-Trp-Lys)-OH (peptide) | 6 |  |  |
| Ac-Nle-cyclo(-Asp-His-Phe-Arg-Trp-Lys)-OH (SEQ ID NO:2) (peptide) |  | 4 | 7 |
| Ac-Nle-cyclo(-Asp-His-D-Phe-D-Arg-Trp-Lys)-OH (peptide) |  | 4 |  |
| Ac-Nle-cyclo(-Asp-D-His-D-Phe-Arg-Trp-Lys)-OH (peptide) |  | 9 | 8 |
